According to paper PMC5434536:

Molecular target: TIP60, endogenous in C4-2 cells (human (endogenous in C4-2)) (UniProt Q92993)
Assay: co-IP; endogenous proteins, C4-2 lysates; TIP60 immunoprecipitated with anti-TIP60; cells +/- 10 nM MB for 24 h; also cells transfected with siCtrl or siING3 and treated with MB; blot for AR

TIP60, endogenous in C4-2 cells (human (endogenous in C4-2)), sequence (Q92993 whole entry): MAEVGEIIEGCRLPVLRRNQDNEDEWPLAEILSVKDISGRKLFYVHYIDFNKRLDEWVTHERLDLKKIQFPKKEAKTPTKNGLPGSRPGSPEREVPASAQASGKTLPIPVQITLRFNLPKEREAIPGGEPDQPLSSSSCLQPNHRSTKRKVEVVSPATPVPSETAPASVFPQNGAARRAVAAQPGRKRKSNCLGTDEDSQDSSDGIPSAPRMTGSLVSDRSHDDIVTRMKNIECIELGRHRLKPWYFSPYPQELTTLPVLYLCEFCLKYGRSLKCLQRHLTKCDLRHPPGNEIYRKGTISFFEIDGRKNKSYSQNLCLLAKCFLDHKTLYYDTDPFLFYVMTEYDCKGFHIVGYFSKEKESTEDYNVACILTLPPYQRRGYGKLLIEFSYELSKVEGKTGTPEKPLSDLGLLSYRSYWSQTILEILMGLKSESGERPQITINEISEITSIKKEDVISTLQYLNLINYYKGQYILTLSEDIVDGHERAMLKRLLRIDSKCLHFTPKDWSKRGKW
androgen receptor (AR), endogenous in C4-2 cells, sequence (P10275 whole entry): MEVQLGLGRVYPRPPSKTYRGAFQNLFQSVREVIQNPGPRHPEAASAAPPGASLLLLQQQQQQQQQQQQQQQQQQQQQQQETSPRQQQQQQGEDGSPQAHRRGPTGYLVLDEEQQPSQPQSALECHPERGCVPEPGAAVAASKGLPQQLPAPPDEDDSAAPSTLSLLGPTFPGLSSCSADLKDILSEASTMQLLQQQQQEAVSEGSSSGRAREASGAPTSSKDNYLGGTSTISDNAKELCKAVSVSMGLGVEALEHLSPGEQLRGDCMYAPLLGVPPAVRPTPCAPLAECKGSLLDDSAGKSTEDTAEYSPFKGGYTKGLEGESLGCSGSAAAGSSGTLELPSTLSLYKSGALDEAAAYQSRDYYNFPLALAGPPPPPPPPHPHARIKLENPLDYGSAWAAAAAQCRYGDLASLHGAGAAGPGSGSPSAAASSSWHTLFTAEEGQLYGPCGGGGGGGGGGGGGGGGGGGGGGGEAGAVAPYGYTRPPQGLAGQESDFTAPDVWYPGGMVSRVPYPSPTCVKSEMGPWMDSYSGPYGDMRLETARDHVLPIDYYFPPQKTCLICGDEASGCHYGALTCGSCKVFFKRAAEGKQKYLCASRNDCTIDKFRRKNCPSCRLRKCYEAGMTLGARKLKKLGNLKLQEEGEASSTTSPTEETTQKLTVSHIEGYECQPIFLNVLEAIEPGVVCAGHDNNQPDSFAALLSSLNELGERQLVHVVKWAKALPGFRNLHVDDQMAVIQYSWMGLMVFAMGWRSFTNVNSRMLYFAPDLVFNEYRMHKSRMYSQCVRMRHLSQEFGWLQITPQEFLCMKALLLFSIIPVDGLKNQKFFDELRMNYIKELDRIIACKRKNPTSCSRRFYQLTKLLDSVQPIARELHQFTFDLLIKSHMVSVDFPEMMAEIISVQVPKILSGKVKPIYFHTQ

Substance: androgen receptor (AR), endogenous in C4-2 cells (from UniProt P10275 1-920)
- fold reduction of the AR-TIP60 association with siING3 against siCtrl: 3 fold
